From patent US20170183639 come the findings set out here.

The data set concerns YFP-CD2 (CD2 expressed in LLC-PK1 cells as a yellow fluorescent protein fused protein).

As for Src kinase of LLC-PK1 cells, the “basal Src activity measured as Y418 phosphorylation” value is “CD2 expression does increase basal Src activity in this manner as compared with a control cell line”.
